The target of one test is T1, mFc-hNKG2D (human, UniProt P26718 73-216).
T1 construct: extracellular domain; Made in house (Dragonfly Tx); the order of tag and ECD follows the name mFc-hNKG2D; also called mFc-tagged human NKG2D; not shown: mouse Fc tag
T1 sequence (looked up): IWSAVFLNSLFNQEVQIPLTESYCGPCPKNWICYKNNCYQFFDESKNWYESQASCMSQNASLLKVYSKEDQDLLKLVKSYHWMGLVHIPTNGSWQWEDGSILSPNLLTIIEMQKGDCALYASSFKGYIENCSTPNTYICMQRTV
Nature of the test: SPR Biacore 8K 37 C; mFc-hNKG2D captured on anti-mFc chip, TriNKET as analyte; steady state fit; control sample, n=2. (In SPR one partner is held on a chip, and binding of the other changes the refractive index at the surface.)

The target in test [1] is T2, Human CD16a V158 (FcγRIIIa V158) (human, UniProt P08637 17-208, biotinylated (site not stated)).
T2 construct: V158 is the allele name in mature numbering; also called hCD16aV; hCD16a V158
Nature of the test: SPR; biotinylated CD16a V158 captured on SA chip, TriNKET as analyte; 1:1 kinetic fit; after low pH hold, n=3.

Test [2] addresses T3, Human CLEC12A expressed on cells (Ba/F3-hCLEC12A, PL21, HL60) (human, UniProt Q5QGZ9 1-265).
T3 sequence: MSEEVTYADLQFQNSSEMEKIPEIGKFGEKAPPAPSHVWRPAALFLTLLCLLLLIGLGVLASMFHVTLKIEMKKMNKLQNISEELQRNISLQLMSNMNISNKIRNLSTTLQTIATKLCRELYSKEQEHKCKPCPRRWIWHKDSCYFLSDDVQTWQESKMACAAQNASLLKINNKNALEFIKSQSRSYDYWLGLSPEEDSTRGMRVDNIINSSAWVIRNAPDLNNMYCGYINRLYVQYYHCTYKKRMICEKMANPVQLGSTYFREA
The test is described as follows: cell-based or functional assay.

The next test addresses T4, Cynomolgus FcRn (cynomolgus monkey, UniProt Q8SPV9 24-297; Q8SPW0 21-119).
T4 construct: Bought recombinant receptor; also called cFcRn; cyno FcRn
Nature of the test: SPR 25C, pH 6.0, FcRn on chip, steady state fit (n = 3).

Test [3] deals with T5, Human CLEC12A-His (recombinant, K244 WT) (human, UniProt Q5QGZ9 65-265).
T5 construct: Made in house (Dragonfly Tx); also called hCLEC12A; hCLEC12A-His; not shown: His tag
T5 sequence: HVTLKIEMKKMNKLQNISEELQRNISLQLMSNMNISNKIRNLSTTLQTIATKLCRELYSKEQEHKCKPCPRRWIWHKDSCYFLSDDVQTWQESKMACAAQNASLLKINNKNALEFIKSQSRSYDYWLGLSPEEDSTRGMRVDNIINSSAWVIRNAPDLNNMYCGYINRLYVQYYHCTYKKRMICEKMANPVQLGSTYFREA
The test is described as follows: SPR, two-state fit; control sample.

The next test concerns the target T6, Human CD64 (FcγRI) (human, UniProt P12314 16-288, biotinylated).
T6 construct: Bought recombinant receptor; also called hFcγRI; Human FcγRI
Nature of the test: SPR, summary of FcγR affinities.

In test [4] the target is T7, Human CD32a H131 (FcγRIIa H131) (human, UniProt P12318 36-218, limits assumed, biotinylated).
T7 construct: Bought recombinant receptor; also called hFcγRIIa H131; FcgRIIa H131
T7 sequence (looked up): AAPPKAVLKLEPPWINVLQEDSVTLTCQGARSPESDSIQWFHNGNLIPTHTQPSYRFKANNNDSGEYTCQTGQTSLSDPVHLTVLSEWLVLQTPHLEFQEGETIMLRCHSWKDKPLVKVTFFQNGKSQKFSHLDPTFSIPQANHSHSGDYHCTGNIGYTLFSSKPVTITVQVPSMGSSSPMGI
Nature of the test: SPR, summary of FcγR affinities.
Method: (§1) Human and cynomolgus CD64, high and low affinity alleles of CD16a (V158 and F158, respectively), two alleles of CD32a (H131 and R131), CD16b, CD32b and cynomolgus CD16 were captured via biotin on a primed (according to the manufacturers instruction) Biacore chip. […] Due to irreversibility of streptavidin-biotin interaction, the capture step for all receptors except FcγRI (CD64) was performed just once prior to the start of the binding experiment. hCD64 and cyno CD64 capture on the CAP chip surface was performed during each cycle in accordance with the manufacturer's instructions for the Biotin CAPture kit.
(§2) Detailed description of each individual receptor binding is presented below.

For test [5], the target named is T8, Human CD16a V158 (FcγRIIIa V158) (human, UniProt P08637 17-208, biotinylated).
T8 construct: Bought recombinant receptor; also called hCD16aV; hFcγRIIIa V158
The test is described as follows: SPR, summary of FcγR affinities.
Method: as §1, §2

For test [6], the target named is T9, Human CD32a R131 (FcγRIIa R131) (human, UniProt P12318 36-218, limits assumed, biotinylated).
T9 construct: Bought recombinant receptor; also called hFcγRIIa R131; FcgRIIa R131
T9 sequence (looked up): T7 sequence (looked up) with H132R
The test is described as follows: SPR, summary of FcγR affinities.
Method: as §1, §2

For a further test, the target named is T10, Human CD32b (FcγRIIb) (human, UniProt P31994 46-217, limits assumed, biotinylated).
T10 construct: Bought recombinant receptor; also called hFcγRIIb; CD32b (FcγR2b)
T10 sequence (looked up): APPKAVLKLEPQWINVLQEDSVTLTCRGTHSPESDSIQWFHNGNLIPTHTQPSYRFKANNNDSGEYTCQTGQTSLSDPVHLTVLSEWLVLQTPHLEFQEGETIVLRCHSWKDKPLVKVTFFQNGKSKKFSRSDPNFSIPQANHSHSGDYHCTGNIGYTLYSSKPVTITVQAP
The test is described as follows: SPR, summary of FcγR affinities.

The target in test [7] is T11, Human CD16a F158 (FcγRIIIa F158) (human, UniProt P08637 17-208, biotinylated).
T11 construct: Bought recombinant receptor; also called hFcγRIIIa F158
Nature of the test: SPR, summary of FcγR affinities.
Method: as §1, §2

Test [8] has as its target T12, recombinant human FcRn (human, UniProt P55899 24-297; P61769 21-119).
T12 construct: also called hFcRn
Nature of the test: SPR 25C, pH 6.0, steady state; pH 6.0; third replicate.

Test [9] deals with T13, recombinant human CD16a V158 (human, UniProt P08637 17-208, biotinylated).
T13 construct: also called FcγRIIIa V158; hCD16aV
Nature of the test: SPR 25C.

For test [10], the target named is T14, recombinant human CD16a F158 (human, UniProt P08637 17-208).
T14 construct: also called FcγRIIIa F158
Nature of the test: SPR 25C.

The target in test [11] is T12, recombinant human FcRn. The test is described as follows: SPR 25C, pH 6.0, steady state; pH 6.0; fourth replicate.

Residue numbers refer to the chain shown, from its start. In names and notes the source's numbering stands.

T2 sequence (P08637 17-208 F176V limits assumed): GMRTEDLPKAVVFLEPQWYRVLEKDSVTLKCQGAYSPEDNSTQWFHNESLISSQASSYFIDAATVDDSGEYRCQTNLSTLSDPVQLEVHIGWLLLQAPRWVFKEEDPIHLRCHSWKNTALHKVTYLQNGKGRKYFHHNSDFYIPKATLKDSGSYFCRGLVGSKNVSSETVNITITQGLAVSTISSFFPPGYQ
T12 sequence (P55899 24-297 limits assumed, chain 1 of 2): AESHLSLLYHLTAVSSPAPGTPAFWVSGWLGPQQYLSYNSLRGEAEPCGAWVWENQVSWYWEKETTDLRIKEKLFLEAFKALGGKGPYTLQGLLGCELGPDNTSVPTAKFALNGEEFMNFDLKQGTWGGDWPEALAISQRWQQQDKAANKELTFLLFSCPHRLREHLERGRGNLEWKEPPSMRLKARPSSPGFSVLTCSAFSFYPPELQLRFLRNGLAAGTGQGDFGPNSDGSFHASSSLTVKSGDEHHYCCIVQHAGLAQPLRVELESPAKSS
T12 sequence (P61769 21-119 limits assumed, chain 2 of 2): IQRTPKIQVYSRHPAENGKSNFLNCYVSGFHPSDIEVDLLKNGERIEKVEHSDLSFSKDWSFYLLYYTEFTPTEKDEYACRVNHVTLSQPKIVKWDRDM
T4 sequence (Q8SPV9 24-297 limits assumed, chain 1 of 2): as the sequence (P55899 24-297 limits assumed, chain 1 of 2) above, with N39D, E44Q, G99S, S189G, S190N, L217M, S269T counted along it
T4 sequence (Q8SPW0 21-119 limits assumed, chain 2 of 2): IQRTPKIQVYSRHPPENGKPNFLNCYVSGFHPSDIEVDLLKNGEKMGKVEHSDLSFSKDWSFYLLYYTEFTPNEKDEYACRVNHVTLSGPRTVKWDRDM
T8 sequence (P08637 17-208 F176V limits assumed): as the sequence (P08637 17-208 F176V limits assumed) above
T13 sequence (P08637 17-208 F176V limits assumed): as above
T6 sequence (P12314 16-288 limits assumed): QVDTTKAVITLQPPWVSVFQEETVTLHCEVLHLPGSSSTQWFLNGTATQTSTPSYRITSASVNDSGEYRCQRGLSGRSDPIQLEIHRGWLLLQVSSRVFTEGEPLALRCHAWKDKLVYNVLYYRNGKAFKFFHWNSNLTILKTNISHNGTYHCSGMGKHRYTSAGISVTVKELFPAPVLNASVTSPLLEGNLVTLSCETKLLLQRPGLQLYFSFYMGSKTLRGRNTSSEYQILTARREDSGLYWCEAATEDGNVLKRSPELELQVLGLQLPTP
T14 sequence (P08637 17-208 limits assumed): as the sequence (P08637 17-208 F176V limits assumed) above, with V160F counted along it
T11 sequence (P08637 17-208 limits assumed): as the sequence (P08637 17-208 F176V limits assumed) above, with V160F counted along it
Method for Cynomolgus FcRn: Recombinant human or cynomolgus monkey (cyno) FcRn was captured on a surface of an SA series S chip at a concentration of 0.25 μg/mL for 1 minute. […] Each FcRn binding experiment consisted of multiple cycles utilizing varying concentrations of analytes. […] 0 nM blank cycle placed at the start of each concentration series and a blank amine coupling modified chip surface lacking FcRn were used for referencing. Each experimental cycle included association, dissociation and regeneration steps. The association step consisted of 60 sec analyte injection and was followed by a 60 sec dissociation step. Surface regeneration (60 sec injection of HBS-EP+ buffer, pH 7.4) completed each kinetic cycle. All steps were executed at a flow rate of 30 μL/min and at 25° C. MBS-EP+ buffer, pH 6.0 was used as a running buffer. The data were fitted to a steady state affinity model with Biacore Insight evaluation software. Chi² (calculated by the software) related to the calculated Rₘₐₓ was used to assess goodness of the fit. All reported values were rounded to one decimal place.
Method for Human CD32b (FcγRIIb): as §1, §2
Method for Human CD64 (FcγRI): as §1, §2
Method for mFc-hNKG2D: Association was monitored for 60 seconds and dissociation was monitored for 60 seconds. Surfaces were regenerated between cycles with three pulses of 10 mM glycine-HCl, pH 1.7 injected for 20 seconds at 100 μL/min. HBS-EP+ (1×) buffer was used throughout the experiment. Data were analyzed using Biacore 8K Insight evaluation software (GE Healthcare).

B1: F3'-1602 TriNKET (bispecific antibody, human IgG1, kappa)
chain: QLQLQESGPGLVKPSETLSLTCTVSGFSLTNYGLHWIRQPPGKCLEWIGVIWSGGKTDYNPSLKSRVTISKDTSKNQFSLKLSSVQAADTAVYYCAKYDYDDSLDYWGQGTLVTVSSGGGGSGGGGSGGGGSGGGGSDIQMTQSPSSLSASVGDRVTITCHASQNINFWLSWYQQKPGKAPKLLIYEASNLHTGVPSRFSGSGSGTRFTLTISSLQPEDIATYYCQQSHSYPLTFGCGTKLEIKGSDKTHTCPPCPAPELLGGPSVFLFPPKPKDTLMISRTPEVTCVVVDVSHEDPEVKFNWYVDGVEVHNAKTKPREEQYNSTYRVVSVLTVLHQDWLNGKEYKCKVSNKALPAPIEKTISKAKGQPREPRVYTLPPCRDELTKNQVSLTCLVKGFYPSDIAVEWESNGQPENNYKTTPPVLVSDGSFTLYSKLTVDKSRWQQGNVFSCSVMHEALHNHYTQKSLSLSPG
heavy: EVQLVESGGGLVKPGGSLRLSCAASGFTFSSYSMNWVRQAPGKGLEWVSSISSSSSYIYYADSVKGRFTISRDNAKNSLYLQMNSLRAEDTAVYYCARGAPIGAAAGWFDPWGQGTLVTVSSASTKGPSVFPLAPSSKSTSGGTAALGCLVKDYFPEPVTVSWNSGALTSGVHTFPAVLQSSGLYSLSSVVTVPSSSLGTQTYICNVNHKPSNTKVDKKVEPKSCDKTHTCPPCPAPELLGGPSVFLFPPKPKDTLMISRTPEVTCVVVDVSHEDPEVKFNWYVDGVEVHNAKTKPREEQYNSTYRVVSVLTVLHQDWLNGKEYKCKVSNKALPAPIEKTISKAKGQPREPQVCTLPPSRDELTENQVSLTCLVKGFYPSDIAVEWESNGQPENNYKTTPPVLDSDGSFFLYSWLTVDKSRWQQGNVFSCSVMHEALHNHYTQKSLSLSPG
light: DIQMTQSPSSVSASVGDRVTITCRASQGISSWLAWYQQKPGKAPKLLIYAASSLQSGVPSRFSGSGSGTDFTLTISSLQPEDFATYYCQQGVSFPRTFGGGTKVEIKRTVAAPSVFIFPPSDEQLKSGTASVVCLLNNFYPREAKVQWKVDNALQSGNSQESVTEQDSKDSTYSLSSTLTLSKADYEKHKVYACEVTHQGLSSPVTKSFNRGEC
notes: Trispecific F3' format: CLEC12A scFv-Fc paired with NKG2D Fab-Fc; Stressed and control samples of the stability studies are the same molecule; also called AB0237
Regarding B1, the Kd with mFc-hNKG2D turned out to be 791 nM. In test [1], binding was put at a Kd of 210 nM, the koff was found to be 0.0229 s⁻¹ and the kon was 109000 M⁻¹ s⁻¹.

B2: AB0089 TriNKET (bispecific antibody, human IgG1, kappa)
chain: B1 chain with S53V, K56A, K71V, Y98G, D101G, S103T, R207D, I220F
heavy: B1 heavy
light: B1 light
notes: F3' format heterodimer of three chains; human IgG1 Fc with EW-RVT and Y349C/S354C mutations; also called AB0089 Lot AB0089-002; CLEC12A TriNKET AB0089
As for B2, the “EC50, rested NK cells lysis of HL60 cells (mean of four donors)” value in test [2] worked out at 0.09 nM. In addition, the Kd in the test with Cynomolgus FcRn amounted to 1000 nM; in test [3] it was 0.9 nM; with Human CD64 (FcγRI), 5.1 nM; in test [4] it was 900 nM; in test [5] it was 333 nM; in test [6] it was 1250 nM. The Kd with Human CD32b (FcγRIIb) was 6270 nM; in [7] it was 1270 nM.

B3: F3'-1602 TriNKET (other)
chain: B1 chain
heavy: B1 heavy
light: B1 light
notes: CLEC12A scFv-Fc, NKG2D A49MI Fab-Fc, human IgG1 Fc; also called AB0237
Take B3: the Kd with recombinant human FcRn [8] came to 1500 nM; with recombinant human FcRn [11], 1600 nM. The “fold difference in affinity vs trastuzumab” value in [9] and in test [10] was no more than 3 fold in each case.

For orientation: Kd means the equilibrium constant for the complex coming apart. One may read the koff as the rate constant with which the complex falls apart. High values mean a short-lived complex, low ones a long-lived complex. By kon is commonly meant a measure of how fast the partners come together.

The values above are taken from patent US20220119534A1 (DRAGONFLY THERAPEUTICS, published 2022).
